In patent US20070041944A1, “Treating tumors by ENH dislocation of ID proteins” (THE TRUSTEES OF COLUMBIA UNIVERSITY IN THE CITY OF NEW YORK, priority 2005, published 2007):

Tests used:
GST-Id2 = target: T1, GST-Id2 (Homo sapiens, UniProt Q02363); test: GST pull-down assay with GST-Id2; type: binding; settings: in vitro-translated 35S-labeled proteins, autoradiography (FIG. 2B)
T1 construct: made in house; host or cells: E. coli BL21 Star (Invitrogen)
T1 sequence (Q02363 1-134): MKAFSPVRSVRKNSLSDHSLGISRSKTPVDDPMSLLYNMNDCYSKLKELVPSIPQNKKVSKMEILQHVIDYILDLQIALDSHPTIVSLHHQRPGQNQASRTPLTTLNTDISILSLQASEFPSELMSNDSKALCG
Experimental: (§1) GST Pull-Down Assay, Western Blot, and Coimmunoprecipitation: GST fusion proteins were purified from BL21 Star (Invitrogen). GST pull-down assay was performed as described in lavarone, A. et al., (1994), Genes Dev., 8:1270-1284. For Wetern blot analysis, cellular pellets were lysed in ice-cold RIPA buffer (50 mM Tris, pH 7.5/150 mM NaCl/1% Nonidet P-40/0.5% sodium deoxycholate/0.1% SDS) containing Complete Mini protease inhibitor pellet (Roche) and 1 mM PMSF. Lysates were electrophoresed on SDS/PAGE gels and transferred to nitrocellulose membrane (Amersham Pharmacia Biotech). Membranes were stained with antibodies against ENH, Id2 (Santa Cruz Biotechnology), and α-tubulin (Sigma), and blots were developed by using ECLWestem Blotting Detection System (Amersham Pharmacia Biotech). The anti-ENH antibody is a rabbit polyclonal that was produced in collaboration with Zymed against a peptide that is fully conserved in the mouse sequence (KQQNGPPRKHI (SEQ ID NO:1)). Coimmunoprecipitation of Id2 and ENH from cells transfected with pcDNA.3-Id2 and p3XFlag-ENH was performed as described (lavarone, A. et al., (2004), Nature, 432:1040-1045).
(§2) To validate the specificity of the binding between ENH and Id2 and identify the domains that mediate this interaction, GST fusion proteins and in vitro-translated proteins in pull-down assays.

GST-δHLHId2 = test: GST pull-down assay with GST-Id2 lacking the HLH domain; type: binding; settings: in vitro-translated 35S-labeled ENH (FIG. 2B Right)
Experimental: as §1, §2

GST-Id1 = target: T2, GST-Id1 (Homo sapiens, UniProt P41134); test: GST pull-down assay with GST-Id1; type: binding; settings: in vitro-translated 35S-labeled ENH (FIG. 2B Right)
T2 construct: made in house; host or cells: E. coli BL21 Star (Invitrogen)
T2 sequence (P41134 1-155): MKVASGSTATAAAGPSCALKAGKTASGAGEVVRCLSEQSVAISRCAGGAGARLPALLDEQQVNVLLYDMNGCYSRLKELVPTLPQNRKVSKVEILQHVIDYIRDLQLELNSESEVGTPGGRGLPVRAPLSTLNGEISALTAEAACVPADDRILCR
Experimental: as §1
(§3) Given the high homology among the HLH domains of the three Id proteins, it was asked whether Id1 and Id3 could also bind ENH in this assay. Indeed, both GST-Id1 and GST-Id3 bound to full-length ENH (FIG. 2B Right).

GST-Id3 = target: T3, GST-Id3 (Homo sapiens, UniProt Q02535); test: GST pull-down assay with GST-Id3; type: binding; settings: in vitro-translated 35S-labeled ENH (FIG. 2B Right)
T3 construct: made in house; host or cells: E. coli BL21 Star (Invitrogen)
T3 sequence (Q02535 1-119): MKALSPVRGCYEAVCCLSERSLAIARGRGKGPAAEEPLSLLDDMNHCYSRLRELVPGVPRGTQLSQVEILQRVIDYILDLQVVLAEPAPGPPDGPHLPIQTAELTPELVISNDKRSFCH
Experimental: as §1, §3

Id2 = target: T4, Id2 (Homo sapiens, UniProt Q02363); test: Coimmunoprecipitation of Id2 and Flag-tagged ENH in transfected Cos-1 cells; type: binding; settings: Cos-1 cells transfected with Id2 and Flag-tagged ENH
T4 construct: expressed in transfected cells; host or cells: Cos-1
T4 sequence (Q02363 1-134): T1 sequence (Q02363 1-134)
Experimental: as §1
To determine whether Id2 binds ENH in vivo, coimmunoprecipitation experiments were performed after transfecting Id2 and Flag-tagged ENH in Cos-1. Anti-Id2 antibodies precipitated full-length Flag-ENH but not Flag-ENHδLIM (FIG. 2C). […]

[1] = tested on: endogenous Id2 in SK-N-SH cells; test: Subcellular localization of endogenous Id2 after ectopic Flag-ENH (immunofluorescence); type: cell-based, human; settings: SK-N-SH transiently transfected with Flag-ENH (FIG. 4B)
Experimental: Quantitative Analysis of Subcellular Localization of Id2 and siRNA Experiments: SK-N-SH-Flag-Id2 cells untreated or treated with RA for 48 h were fixed in 4% paraformaldehyde. Flag-Id2 and endogenous ENH were immunostained by using Flag-M2 (Sigma) and ENH antibodies, respectively. SK-N-SH cells were transfected with vector or p3XFlag-ENH and immunostained by using Flag-M2 and Id2 (Zymed) antibodies. For silencing of ENH, ENH siRNA (siGenome Smartpool reagent M-006930-00) and control, nontargeting (siGenome Smartpool reagent D-001206-13) siRNA mixtures were purchased from Dharmacon. SK-N-SH cells stably expressing Flag-Id2 were treated with vehicle control or RA for 48 h and transfected with 60 nM siRNAs by using Lipofectamine 2000 (Invitrogen). Thirty-six hours after transfection cells were fixed in 4% paraformaldehyde and immunostained by using Flag-M2 antibodies. Parallel cultures were analyzed by Western blot. Secondary antibodies were FITC- or Cy3-conjugated anti-rabbit and Cy3-conjugated anti-mouse (Jackson ImmunoResearch). Nuclei were counterstained with DAPI. Slides were mounted in 90% glycerol in PBS and analyzed on an Olympus epifluorescence microscope. The percentage of cells displaying Id2 staining in the nucleus was scored by counting at least 500 cells from triplicate samples. […]

SK-N-SH cells = test: BrdU incorporation study; type: cell-based, human; settings: BrdU 6 h and 14 h
Experimental: BrdU Incorporation Study: SK-N-SH cells were plated in Lab-Tek Chamber Slides (Nalge Nunc Intl.). Cells were transfected with plasmids expressing the empty vector, Id2, ENH, or both and an EGFP expression vector to identify transfected cells. After 24 h, cells were labeled with 10 μM BrdU for 6 h and 14 h, fixed, and stained with anti-BrdU antibody (Roche) for 1 h at room temperature. Secondary antibody was donkey anti-mouse, Cy3-conjugated (Jackson hnmunoResearch). Nuclei were counterstained with DAPI. Cells were examined on an Olympus epifluorescence microscope. BrdU-positive cells were scored by counting at least 500 GFP-positive cells in three independent experiments.
A well known function of Id2 is the ability to enhance cell proliferation by promoting the transition from G1 to S phase of the cell cycle. Therefore, it was asked whether ENH inhibited cell proliferation and opposed Id2-mediated entry into S phase. […] Next SK-N-SH was transfected with ENH and Id2 in the presence of a GFP expression plasmid and measured the rate of DNA synthesis by incorporation of BrdU of the successfully transfected, GFP-positive cells.

B1: ENH: actin cytoskeleton-associated PDZ-LIM protein ENH (Enigma Homologue), full-length, SEQ ID NO:4; also used Flag-tagged (protein, listed as Homo sapiens)
chain: MSNYSVSLVGPAPWGFRLQGGKDFNMPLTISSLKDGGKAAQANVRIGDVVLSIDGINAQGMTHLEAQNKIKGCTGSLNMTLQRASAAPKPEPVPVQKGEPKEVVKPVPITSPAVSKVTSTNNMAYNKAPRPFGSVSSPKVTSIPSPSSAFTPAHATTSSHASPSPVAAVTPPLFAASGLHANANLSADQSPSALSAGKTAVNVPRQPTVTSVCSETSQELAEGQRRGSQGDSKQQNGPPRKHIVERYTEFYHVPTHSDASKKRLIEDTEDWRPRTGTTQSRSFRILAQITGTEHLKESEADNTKKANNSQEPSPQLASSVASTRSMPESLDSPTSGRPGVTSLTTAAAFKPVGSTGVIKSPSWQRPNQGVPSTGRISNSATYSGSVAPANSALGQTQPSDQDTLVQRAEHIPAGKRTPMCAHCNQVIRGPFLVALGKSWHPEEFNCAHCKNTMAYIGFVEEKGALYCELCYEKFFAPECGRCQRKILGEVINALKQTWHVSCFVCVACGKPIRNNVFHLEDGEPYCETDYYALFGTICHGCEFPIEAGDMFLEALGYTWHDTCFVCSVCCESLEGQTFFSKKDKPLCKKHAHSVNF
- binding of GST-Id2 to ENH constructs (GST-Id2): bound efficiently
- binding of GST-δHLHId2 to ENH (GST-δHLHId2): failed to bind
- binding of GST-Id1 to ENH (GST-Id1): bound
- binding of GST-Id3 to ENH (GST-Id3): bound
- precipitation by anti-Id2 antibodies (Id2; Western blot for Flag (FIG. 2C)): precipitated
- Id2 in Flag immunoprecipitates (Id2; Western blot for Id2 (FIG. 2D)): contained Id2
- subcellular localization of endogenous Id2 [1]: translocation of Id2 to the cytoplasm
- Id2-mediated stimulation of DNA synthesis (SK-N-SH cells; ENH and Id2 cotransfected): abrogated
- S phase entry (BrdU incorporation of GFP-positive cells) (SK-N-SH cells; ectopic ENH): strongly inhibited
